The values below come from paper PMC11544220.

This assay deals with Mycobacterium tuberculosis dUTPase lacking the mycobacteria-specific loop A133-S137 (MtDUT^Δloop) (Mycobacterium tuberculosis) (UniProt P9WNS5). Kind of assay: crystal structure.

In turn, “Mycobacterium tuberculosis dUTPase lacking the mycobacteria-specific loop A133-S137 (MtDUT^Δloop) (from UniProt P9WNS5 1-154) (enzyme)” gave a stoichiometry N (subunits in the oligomer) of 3.
